Results published in patent US20200283741.
Where a chain is given by its changes, count along the chain named. In names and notes the source's numbering stands.

T1: HbS1c-type αF8P
T1 chain: VHLTPVEK

T2: HbA1c-type αF8P (α-fructosyl-valyl-histidyl-leucyl-threonyl-prolyl-glutamyl-glutamyl-lysine)
T2 chain: VHLTPEEK

T3: HbC1c-type αF8P
T3 chain: VHLTPKEK

B1: En42FX R105L (protein)
chain: MAPRANTKIIVVGGGGTMGSSTALHLLRAGYTPSNITVLDTYPIPSAQSAGYDLNKIFGISGANKHDLQLSLEAFDMWKNDPLFKPFFHNVGQMDVSSTEEGIKLLRRRYQSLLRAGIGLEKTNFLLESEDEILAKAPHFTREQIKGWKGLFCGDGGWLAAAKAINAIGQFLKEQGVKFGFGEAGTFKKPLFADADEKTCIGVETVDGTKYYADKVVLAAGAWSSTLVDLEEQCVSKAWVFAHIQLTPAEAAAYKNTPVIYDGDYGFFIEPDENGIIKVCDEFPGFTHFKMHQPYGSPVPKLISVPRSHAKHPTDTYPHASEVTIKKAINRFLPRFNDKELFNRAMCWCTDTADSNLLVCEHPRWKGFYLATGDSGHSFKLLPNIGKHVVELLEGRLESVFKDAWRWRPGSGDALKSRRAAPAKDLADMPGWRNEAKM
B2: En42FX R105D (protein)
chain: B1 chain with L105D
B3: En42FX R105E (protein)
chain: B1 chain with L105E
B4: En42FX R105A (protein)
chain: B1 chain with L105A
B5: glycated hexapeptide oxidase derived from Emericella nidulans (En42FX) (protein)
chain: B1 chain with L105R
B6: En42FX R108A (protein)
chain: B1 chain with L105R, R108A
B7: En42FX R105N (protein)
chain: B1 chain with L105N
B8: En42FX R105Q (protein)
chain: B1 chain with L105Q
B9: En42FX R108S (protein)
chain: B1 chain with L105R, R108S
B10: CFP-T7-H40-3M K106A (protein)
chain: MTSNRADTRVIVVGGGGTIGSSTALHLVRSGYAPANITVLDTFEIPSAQSAGHDLNKIMGIDHGNKVNLQMSLEARQMWKEDELFQPFFHNTGRMDCESTPKGIEALKKYYQKLHDAGAGLEKTHAWLDNEDEILSKMPLLQRDQIQGWKAIWSQDGGWLAAAKAINAIGQFLKERGVKFGFGGAGSFKQPLFDDEGTTCIGVETADGTKYYADKVVLAAGAWSPTLVDLEDQCCSKAWVYAHIQLTPEEAAEYKGVPVVYNSEYGFFFEPDEFGVIKVCNEFPGFSRFKEHQPYGAPSPKRISVPRSHAKHPTDTYPDASEVSIKKAIATFLPRFQDKELFNRALCWCTDTADSTLLMCEHPKWKNFILATGDSGHSFKILPNVGKYVVELIEGRLPEEMAYQWRWRPGGDALKSRRAAPPKDLADMPGWKHDPKL
B11: CFP-T7-H40-3M K113S (protein)
chain: B10 chain with A106K, K113S
B12: CFP-T7-H40-3M K113A (protein)
chain: B10 chain with A106K, K113A
B13: CFP-T7-H40-3M K113N (protein)
chain: B10 chain with A106K, K113N
B14: CFP-T7-H40-3M K113Q (protein)
chain: B10 chain with A106K, K113Q
B15: CFP-T7-H40-3M K106D (protein)
chain: B10 chain with A106D
B16: CFP-T7-H40-3M K113D (protein)
chain: B10 chain with A106K, K113D
B17: CFP-T7-H40-3M K113E (protein)
chain: B10 chain with A106K, K113E
B18: CFP-T7-H40-3M K113T (protein)
chain: B10 chain with A106K, K113T

Biological target: T1, HbS1c-type αF8P

Question: B1 was tested. Which relative activity on substrate (activity on HbA1c-type αF8P = 100%) did it give?
Answer: 64%

Question: With B2 as the protein, how does the relative activity on substrate (activity on HbA1c-type αF8P = 100%) read?
Answer: 114%

Question: Which relative activity on substrate (activity on HbA1c-type αF8P = 100%) does the source give for B3 here?
Answer: 69%

Question: B4 was tested. Which relative activity on substrate (activity on HbA1c-type αF8P = 100%) did it give?
Answer: 70%

Question: Which relative activity on substrate (activity on HbA1c-type αF8P = 100%) does the source give for B5 here?
Answer: 41%

Question: With B6 as the protein, how does the relative activity on substrate (activity on HbA1c-type αF8P = 100%) read?
Answer: 70%

Question: Which relative activity on substrate (activity on HbA1c-type αF8P = 100%) does the source give for B7 here?
Answer: 95%

Question: B8 was tested. Which relative activity on substrate (activity on HbA1c-type αF8P = 100%) did it give?
Answer: 70%

Question: How did the relative activity on substrate (activity on HbA1c-type αF8P = 100%) turn out when B9 was run?
Answer: 61%

Question: What does the source list for B10?
Answer: relative activity (HbS1c/HbA1c), fold over H40-3M before modification: improved by about 2.1 to 3.3 times; relative activity on substrate (activity on HbA1c-type αF8P = 100%): 81%; specific activity on substrate: at least 20 mU/mg

Question: What does the source list for B11?
Answer: relative activity (HbS1c/HbA1c), fold over H40-3M before modification: improved by about 2.1 to 3.3 times; relative activity on substrate (activity on HbA1c-type αF8P = 100%): 130%; specific activity on substrate: at least 20 mU/mg

Question: How did the relative activity on substrate (activity on HbA1c-type αF8P = 100%) turn out when B12 was run?
Answer: 104%

Question: What about the “specific activity on substrate” value of the same protein?
Answer: at least 20 mU/mg

Question: With B13 as the protein, how does the relative activity on substrate (activity on HbA1c-type αF8P = 100%) read?
Answer: 95%

Question: What about the “specific activity on substrate” value of the same protein?
Answer: at least 20 mU/mg

Question: What does the source list for B14?
Answer: relative activity on substrate (activity on HbA1c-type αF8P = 100%): 106%; specific activity on substrate: at least 20 mU/mg

Question: Which relative activity on substrate (activity on HbA1c-type αF8P = 100%) does the source give for B15 here?
Answer: 83%

Question: What about the “specific activity on substrate” value of the same protein?
Answer: at least 20 mU/mg

Question: B16 was tested. Which relative activity on substrate (activity on HbA1c-type αF8P = 100%) did it give?
Answer: 93%

Question: What about the “specific activity on substrate” value of the same protein?
Answer: at least 20 mU/mg

Question: B17 was tested. Which relative activity on substrate (activity on HbA1c-type αF8P = 100%) did it give?
Answer: 97%

Question: And the “specific activity on substrate” value?
Answer: at least 20 mU/mg

Question: Which results are given for B18?
Answer: relative activity on substrate (activity on HbA1c-type αF8P = 100%): 104%; specific activity on substrate: at least 20 mU/mg

Biological target: T2, HbA1c-type αF8P …

Question: Which relative activity on substrate (reference, designated as 100%) does the source give for B1 here?
Answer: 100%

Question: For B2, which relative activity on substrate (reference, designated as 100%) is on record?
Answer: 100%

Question: B3 was tested. Which relative activity on substrate (reference, designated as 100%) did it give?
Answer: 100%

Question: With B4 as the protein, how does the relative activity on substrate (reference, designated as 100%) read?
Answer: 100%

Question: B5 was tested. Which relative activity on substrate (reference, designated as 100%) did it give?
Answer: 100%

Question: For B6, which relative activity on substrate (reference, designated as 100%) is on record?
Answer: 100%

Question: For B7, which relative activity on substrate (reference, designated as 100%) is on record?
Answer: 100%

Question: How did the relative activity on substrate (reference, designated as 100%) turn out when B8 was run?
Answer: 100%

Question: How did the relative activity on substrate (reference, designated as 100%) turn out when B9 was run?
Answer: 100%

Question: Which results are given for B10?
Answer: relative activity on substrate (reference, designated as 100%): 100%; specific activity on substrate: at least 20 mU/mg

Question: What does the source list for B11?
Answer: relative activity on substrate (reference, designated as 100%): 100%; specific activity on substrate: at least 20 mU/mg

Question: Which relative activity on substrate (reference, designated as 100%) does the source give for B12 here?
Answer: 100%

Question: What about the “specific activity on substrate” value of the same protein?
Answer: at least 20 mU/mg

Question: B13 was tested. Which relative activity on substrate (reference, designated as 100%) did it give?
Answer: 100%

Question: And the “specific activity on substrate” value?
Answer: at least 20 mU/mg

Question: What does the source list for B14?
Answer: relative activity on substrate (reference, designated as 100%): 100%; specific activity on substrate: at least 20 mU/mg

Question: For B15, which relative activity on substrate (reference, designated as 100%) is on record?
Answer: 100%

Question: What about the “specific activity on substrate” value of the same protein?
Answer: at least 20 mU/mg

Question: Which relative activity on substrate (reference, designated as 100%) does the source give for B16 here?
Answer: 100%

Question: What about the “specific activity on substrate” value of the same protein?
Answer: at least 20 mU/mg

Question: Which results are given for B17?
Answer: relative activity on substrate (reference, designated as 100%): 100%; specific activity on substrate: at least 20 mU/mg

Question: Which relative activity on substrate (reference, designated as 100%) does the source give for B18 here?
Answer: 100%

Question: And the “specific activity on substrate” value?
Answer: at least 20 mU/mg

Biological target: T3, HbC1c-type αF8P

Question: Which “relative activity (HbC1c/HbA1c), fold over En42FX before modification” value does the source give for B1 here?
Answer: improved by about 1.1 to 10.8 times

Question: What about the relative activity on substrate (activity on HbA1c-type αF8P = 100%) of the same protein?
Answer: 9%

Question: Which results are given for B2?
Answer: relative activity (HbC1c/HbA1c), fold over En42FX before modification: improved by about 1.1 to 10.8 times; relative activity on substrate (activity on HbA1c-type αF8P = 100%): 86%

Question: B3 was tested. Which relative activity on substrate (activity on HbA1c-type αF8P = 100%) did it give?
Answer: 31%

Question: For B4, which relative activity on substrate (activity on HbA1c-type αF8P = 100%) is on record?
Answer: 33%

Question: Which relative activity on substrate (activity on HbA1c-type αF8P = 100%) does the source give for B5 here?
Answer: 8%

Question: Which relative activity on substrate (activity on HbA1c-type αF8P = 100%) does the source give for B6 here?
Answer: 57%

Question: For B7, which relative activity on substrate (activity on HbA1c-type αF8P = 100%) is on record?
Answer: 11%

Question: Which relative activity on substrate (activity on HbA1c-type αF8P = 100%) does the source give for B8 here?
Answer: 25%

Question: For B9, which relative activity on substrate (activity on HbA1c-type αF8P = 100%) is on record?
Answer: 10%

Question: B10 was tested. Which “relative activity (HbC1c/HbA1c), fold over H40-3M before modification” value did it give?
Answer: improved by about 2.8 to 9.4 times

Question: What about the relative activity on substrate (activity on HbA1c-type αF8P = 100%) of the same protein?
Answer: 31%

Question: And the “specific activity on substrate” value?
Answer: at least 20 mU/mg

Question: With B11 as the protein, how does the “relative activity (HbC1c/HbA1c), fold over H40-3M before modification” value read?
Answer: improved by about 2.8 to 9.4 times

Question: And the relative activity on substrate (activity on HbA1c-type αF8P = 100%)?
Answer: 103%

Question: What about the “specific activity on substrate” value of the same protein?
Answer: at least 20 mU/mg

Question: B12 was tested. Which relative activity on substrate (activity on HbA1c-type αF8P = 100%) did it give?
Answer: 38%

Question: And the “specific activity on substrate” value?
Answer: at least 20 mU/mg

Question: With B13 as the protein, how does the relative activity on substrate (activity on HbA1c-type αF8P = 100%) read?
Answer: 42%

Question: What about the “specific activity on substrate” value of the same protein?
Answer: at least 20 mU/mg

Question: How did the relative activity on substrate (activity on HbA1c-type αF8P = 100%) turn out when B14 was run?
Answer: 50%

Question: And the “specific activity on substrate” value?
Answer: at least 20 mU/mg

Question: For B15, which relative activity on substrate (activity on HbA1c-type αF8P = 100%) is on record?
Answer: 48%

Question: What about the “specific activity on substrate” value of the same protein?
Answer: at least 20 mU/mg

Question: With B16 as the protein, how does the relative activity on substrate (activity on HbA1c-type αF8P = 100%) read?
Answer: 39%

Question: What about the “specific activity on substrate” value of the same protein?
Answer: at least 20 mU/mg

Question: How did the relative activity on substrate (activity on HbA1c-type αF8P = 100%) turn out when B17 was run?
Answer: 91%

Question: And the “specific activity on substrate” value?
Answer: at least 20 mU/mg

Question: What does the source list for B18?
Answer: relative activity on substrate (activity on HbA1c-type αF8P = 100%): 40%; specific activity on substrate: at least 20 mU/mg
